# In paper PMC9257043:
# Target: recombinant SmFGFRA extracellular ligand binding domain (rSmFGFRA-L) (Schistosoma mansoni)
# Experiment: BLI; Octet RED 96; biotinylated rSmFGFRA-L immobilised on Streptavidin Biosensors, human aFGF/bFGF in dilution series as analyte; kinetic buffer (PBS with 15 mM NaCl, 0.1 mg/ml BSA, 0.002% Tween-20); association 1000 s, dissociation 1000 s; 30°C, 1000 rpm; double reference subtraction
substance,measurement,value
human acidic FGF (aFGF) (from UniProt P05230 16-155) (ligand),Kd,5.81 nM
human basic FGF (bFGF) (from UniProt P09038 143-288) (ligand),Kd,0.36 nM
